Test results: patent US20090176209A1 (DOMANTIS, published 2009)

B1: anti-β-galactosidase Vκ domain antibody clone E5 (other)
VL: DIQMTQSPSSLSASVGDRVTITCRASQSVSSYLNWYQQKPGKAPKLLIYLASRLQSGVPSRFSGSGSGTDFTLTISSLQPEDFATYYCQQNWWLPPTFGQGTKVEIK
notes: The Vκ single domain itself; also called Vκ(E5); Vk(E5)
B2: scArc expressed from pIE7aA, pIE7a2A, pIE7a3A or pIE7a4A (other)
chain: MGSTGGAAAKEAAAKEAAAKEAAAKELAAKEAAAKEAAAKEAAAKELAAGSGGGSGGGHMKGMSKMPQFNLRWPREVLDLVRKVAEENGRSVNSEIYQRVMESFKKEGRIGAGGGSGGGSGGGSGGGHMKGMSKMPQFNLRWPREVLDLVRKVAEENGRSVNSEIYQRVMESFKKEGRIGAGGGSGGGSYPYDVPDYA
notes: in vitro translated in the presence of 3F10 αHA mAb; also called scArc complex with DNA
B3: HA-tagged scArc repressor expressed from pIE2aA / pIE2a^2A-derived genetic elements (other)
chain: MGSTGGAAAGSGGGSGGGHMKGMSKMPQFNLRWPREVLDLVRKVAEENGRSVNSEIYQRVMESFKKEGRIGAGGGSGGGSGGGSGGGHMKGMSKMPQFNLRWPREVLDLVRKVAEENGRSVNSEIYQRVMESFKKEGRIGAGGGSGGGSYPYDVPDYA
notes: The same protein is encoded by pIE2A, pIE2aA and pIE2a^2A (they differ in the number of operators on the DNA); also called scArc-HA; pIE2-encoded scArc-HA
B4: HA-tagged scArc repressor expressed from pIE3A / pIE3aA-derived genetic elements (other)
chain: MSGSGGGSGGGHMKGMSKMPQFNLRWPREVLDLVRKVAEENGRSVNSEIYQRVMESFKKEGRIGAGGGSGGGSGGGSGGGHMKGMSKMPQFNLRWPREVLDLVRKVAEENGRSVNSEIYQRVMESFKKEGRIGAGGGSGGGSMGSTGGAAARSYPYDVPDYA
notes: In vitro translated; differs from the pIE2 form in that the MCS-encoded region lies between scArc and the HA tag; also called pIE3-derived scArc-HA; scArc-HA
B5: VH(DOM1h-10-27)-scArc fusion protein (pIE2aAVH(DOM1h-10-27)) (other)
chain: MAEVQLLESGGGLVQPGGSLRLSCAASGFTFEWYWMGWVRQAPGKGLEWVSAISGSGGSTYYADSVKGRFTISRDNSKNTLYLQMNSLRAEDAAVYYCAKVKLGGGPNFGYRGQGTLVTVSSAAGGGSGGGHMKGMSKMPQFNLRWPREVLDLVRKVAEENGRSVNSEIYQRVMESFKKEGRIGAGGGSGGGSGGGSGGGHMKGMSKMPQFNLRWPREVLDLVRKVAEENGRSVNSEIYQRVMESFKKEGRIGAGGGSGGGSYPYDVPDYA
notes: Human heavy chain VH domain antibody against human TNF receptor fused to scArc; in vitro translated, assayed as protein-DNA complex (one Arc operator), with the stabilising 3F10 mAb; also called VH(DOM1h-10-27) domain antibody fusion construct with scArc

Tests used:
[1] = molecular target: T1, β-galactosidase (Sigma), biotinylated (Escherichia coli (strain K12), UniProt P00722 2-1024 = β-galactosidase, Biotinylated (sites not given); the native enzyme is a homotetramer, and one chain is given); experiment: method not stated
T1 construct: Immobilised on streptavidin-coated tubes or wells

[2] = molecular target: T2, protein A (Sigma), biotinylated (UniProt P38507 37-477); experiment: protein-DNA complex captured on biotinylated protein in streptavidin-coated PCR tubes; co-captured DNA detected by PCR and gel
T2 construct: Immobilised on streptavidin-coated tubes; also called pA

[3] = molecular target: T3, BSA (Sigma), biotinylated (UniProt P02769 25-607); experiment: as above
T3 construct: Negative control surface

[4] = molecular target: T4, human TNF receptor, biotinylated (human, UniProt P19438 30-211, limits assumed, biotinylated); experiment: as above
T4 construct: Immobilised on streptavidin-coated tubes
T4 sequence (looked up): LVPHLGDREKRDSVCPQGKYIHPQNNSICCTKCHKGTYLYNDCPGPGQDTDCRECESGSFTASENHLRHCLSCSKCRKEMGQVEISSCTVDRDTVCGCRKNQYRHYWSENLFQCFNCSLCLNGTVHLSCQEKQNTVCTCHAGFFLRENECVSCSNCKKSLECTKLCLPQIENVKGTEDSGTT

T3 sequence (P02769 25-607 limits assumed): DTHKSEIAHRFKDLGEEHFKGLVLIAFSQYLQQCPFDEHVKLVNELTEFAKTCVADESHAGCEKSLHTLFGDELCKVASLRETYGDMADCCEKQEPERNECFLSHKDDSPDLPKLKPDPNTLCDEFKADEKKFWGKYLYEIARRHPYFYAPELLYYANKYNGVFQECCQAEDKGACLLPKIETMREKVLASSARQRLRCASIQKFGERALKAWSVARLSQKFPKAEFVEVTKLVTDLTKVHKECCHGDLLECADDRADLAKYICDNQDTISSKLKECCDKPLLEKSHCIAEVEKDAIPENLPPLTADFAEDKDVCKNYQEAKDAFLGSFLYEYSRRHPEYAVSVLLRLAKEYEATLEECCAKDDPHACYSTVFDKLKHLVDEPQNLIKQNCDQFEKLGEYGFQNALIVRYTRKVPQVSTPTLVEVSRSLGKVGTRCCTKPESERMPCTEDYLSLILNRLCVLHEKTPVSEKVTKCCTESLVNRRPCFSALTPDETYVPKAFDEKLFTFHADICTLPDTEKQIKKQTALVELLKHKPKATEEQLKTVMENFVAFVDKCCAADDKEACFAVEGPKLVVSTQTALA
T1 sequence (P00722 2-1024 limits assumed): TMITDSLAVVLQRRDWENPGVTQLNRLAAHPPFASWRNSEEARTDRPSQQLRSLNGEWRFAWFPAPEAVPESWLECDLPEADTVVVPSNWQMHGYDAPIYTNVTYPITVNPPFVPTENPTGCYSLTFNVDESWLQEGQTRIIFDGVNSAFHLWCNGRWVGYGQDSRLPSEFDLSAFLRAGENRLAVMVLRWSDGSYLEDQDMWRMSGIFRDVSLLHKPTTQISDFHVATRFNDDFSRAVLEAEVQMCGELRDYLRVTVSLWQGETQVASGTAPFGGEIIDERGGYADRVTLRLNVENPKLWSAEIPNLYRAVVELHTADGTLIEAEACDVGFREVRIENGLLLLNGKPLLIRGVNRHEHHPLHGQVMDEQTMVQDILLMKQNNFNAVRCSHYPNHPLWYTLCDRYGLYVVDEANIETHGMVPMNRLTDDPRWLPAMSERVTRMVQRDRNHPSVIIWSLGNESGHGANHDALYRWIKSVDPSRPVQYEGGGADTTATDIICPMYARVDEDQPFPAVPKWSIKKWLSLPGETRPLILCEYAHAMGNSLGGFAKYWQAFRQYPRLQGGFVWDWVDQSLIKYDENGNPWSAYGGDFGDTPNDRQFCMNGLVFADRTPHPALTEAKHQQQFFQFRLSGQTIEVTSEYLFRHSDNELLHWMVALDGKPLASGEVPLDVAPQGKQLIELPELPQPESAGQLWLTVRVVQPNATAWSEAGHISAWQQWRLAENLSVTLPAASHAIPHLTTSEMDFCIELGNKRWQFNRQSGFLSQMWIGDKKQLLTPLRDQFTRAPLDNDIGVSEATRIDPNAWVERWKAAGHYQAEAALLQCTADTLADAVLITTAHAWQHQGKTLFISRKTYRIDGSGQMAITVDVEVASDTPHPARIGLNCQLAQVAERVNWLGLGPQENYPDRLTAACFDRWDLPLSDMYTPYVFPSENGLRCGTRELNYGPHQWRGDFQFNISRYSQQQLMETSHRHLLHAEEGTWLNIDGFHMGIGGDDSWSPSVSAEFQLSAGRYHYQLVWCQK

Row | Binder | Kd [1] | binding result [2] | binding result [3] | binding result [4]
1 | B1 | > 1 µM |  |  | 
2 | B2 |  | no binding | no binding | 
3 | B3 |  | no binding | no binding | no binding
4 | B4 |  |  | no binding | 
5 | B5 |  |  | no binding | 
